The record followed here is US20080274976A1 (UNIVERSITY OF UTAH RESEARCH FOUNDATION, published 2008).

For test [1], the target named is κM-conotoxin RIIIK (Conus radiatus).
Test [2] shares this target. As to the kind of experiment: voltage clamp of channels expressed in Xenopus oocytes.

Where “and” joins values, the source holds several entries; their conditions need not be identical. Equal entries are not always repeated.

B1: Shaker-Δ6-46 K+ channel (other)
chain: MAAVALREQQLQRNSLDGYGSLPKLSSQDEEGGAGHGFGGGPQHFEPIPHDHDFCERVVINVSGLRFETQLRTLNQFPDTLLGDPARRLRYFDPLRNEYFFDRSRPSFDAILYYYQSGGRLRRPVNVPLDVFSEEIKFYELGDQAINKFREDEGFIKEEERPLPDNEKQRKVWLLFEYPESSQAARVVAIISVFVILLSIVIFCLETLPEFKHYKVFNTTTNGTKIEEDEVPDITDPFFLIETLCIIWFTFELTVRFLACPNKLNFCRDVMNVIDIIAIIPYFITLATVVAEEEDTLNLPKAPVSPQDKSSNQAMSLAILRVIRLVRVFRIFKLSRHSKGLQILGRTLKASMRELGLLIFFLFIGVVLFSSAVYFAEAGSENSFFKSIPDAFWWAVVTMTTVGYGDMTPVGVWGKIVGSLCAIAGVLTIALPVPVIVSNFNYFYHRETDQEEMQSQNFNHVTSCPYLPGTLGQHMKKSSLSESSSDMMDLDDGVESTPGLTETHPGRSAVAPFLGAQQQQQQPVASSLSMSIDKQLQHPLQQLTQTQLYQQQQQQQQQQQNGFKQQQQQTQQQLQQQQSHTINASAAAATSGSGSSGLTMRHNNALAVSIETDV
One may read the Kd as the constant that tells how readily two partners part at equilibrium. Read a low Kd as higher affinity. For the molecule B1, in the test with κM-conotoxin RIIIK [1], the Kd was 3330 nM and 1260 nM.

B2: Shaker K+ channel, wild type (other)
chain: MAAVAGLYGLGEDRQHRKKQQQQQQHQKEQLEQKEEQKKIAERKLQLREQQLQRNSLDGYGSLPKLSSQDEEGGAGHGFGGGPQHFEPIPHDHDFCERVVINVSGLRFETQLRTLNQFPDTLLGDPARRLRYFDPLRNEYFFDRSRPSFDAILYYYQSGGRLRRPVNVPLDVFSEEIKFYELGDQAINKFREDEGFIKEEERPLPDNEKQRKVWLLFEYPESSQAARVVAIISVFVILLSIVIFCLETLPEFKHYKVFNTTTNGTKIEEDEVPDITDPFFLIETLCIIWFTFELTVRFLACPNKLNFCRDVMNVIDIIAIIPYFITLATVVAEEEDTLNLPKAPVSPQDKSSNQAMSLAILRVIRLVRVFRIFKLSRHSKGLQILGRTLKASMRELGLLIFFLFIGVVLFSSAVYFAEAGSENSFFKSIPDAFWWAVVTMTTVGYGDMTPVGVWGKIVGSLCAIAGVLTIALPVPVIVSNFNYFYHRETDQEEMQSQNFNHVTSCPYLPGTLGQHMKKSSLSESSSDMMDLDDGVESTPGLTETHPGRSAVAPFLGAQQQQQQPVASSLSMSIDKQLQHPLQQLTQTQLYQQQQQQQQQQQNGFKQQQQQTQQQLQQQQSHTINASAAAATSGSGSSGLTMRHNNALAVSIETDV
notes: whole, on cells
Take B2: the binding result in the test with κM-conotoxin RIIIK [2] is given as “binds”.
